# B1: MFF (parent)
# chain: MAEISRIQYEMEYTEGISQRMRVP
# B2: RIPK4 (parent)
# chain: VIDLFDEQGLSALHLAAQGRHAQT
# Variants of: B1
# Assay: protein stability index of a GFP-peptide fusion (GPS, HEK-293T) (PSI 1-6); higher = more stable
# Details: c terminus: a fixed tail appended
# 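Also: lentivirally expressed fusions sorted by FACS into six bins by GFP to DsRed ratio, PSI derived from sequencing read proportions per bin multiplied by bin number.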
row,Variant,protein stability index
1,I7L,2.29
2,P24I,1.91
3,M11D,3.61

# Variants of: B2
# Assay: as above
# Details: c terminus: a fixed tail appended
row,Variant,protein stability index
1,Q8T,2.65
2,Q8G,3.12
3,Q8I,1.46
4,Q8A,2.73
5,Q8M,2.08
6,Q8H,2.61
7,Q8V,2.53
8,Q8E,2.98
9,Q8F,2.05
10,Q8S,2.65
11,Q8P,3.22
12,Q8N,2.86
13,Q8K,2.58
14,Q8D,3.07
15,Q8Y,2.25
16,Q8R,2.82
17,Q8W,1.45
18,Q8C,1.76
19,Q8L,1.66
20,D3H,1.68
21,D3W,2.95
22,D3E,2.66
23,D3R,2.34
24,D3V,1.58

row,Variant,protein stability index
1,D3M,1.36
2,D3T,2.17
3,D3F,3.19
4,D3Q,2.46
5,D3S,2.69
6,D3P,2.81
7,D3K,2.31
8,D3G,2.58
9,D3N,2.7
10,D3I,2.71
11,D3A,1.79
12,D3Y,1.1
13,D3C,2.25
14,D3L,1.89
15,F5Y,3.22
16,F5Q,3.91
17,F5T,3.94
18,F5I,2.89
19,F5M,2.78
20,F5H,3.9
21,F5A,4.21
22,F5D,4.18
23,F5L,2.95
24,F5E,4.6

row,Variant,protein stability index
1,F5V,3.39
2,F5C,3.08
3,F5S,3.67
4,F5K,4.16
5,F5P,4.81
6,F5G,3.86
7,F5W,2.44
8,F5N,2.98
9,F5R,3.64
10,V1I,2.43
11,V1E,4.09
12,V1T,3.82
13,V1K,3.92
14,V1M,3.37
15,V1P,3.72
16,V1F,1.88
17,V1W,2.76
18,V1N,3.7
19,V1G,3.61
20,V1L,2.7
21,V1Y,2.16
22,V1D,4.32
23,V1H,3.45
24,V1R,3.41

row,Variant,protein stability index
1,V1C,2.88
2,V1Q,4.09
3,V1A,3.82
4,V1S,3.62
5,D6F,2.33
6,D6V,3.75
7,D6E,2.71
8,D6R,2.04
9,D6G,1.77
10,D6P,3.13
11,D6Y,1.63
12,D6C,2.39
13,D6N,1.96
14,D6I,4.12
15,D6H,2.06
16,D6K,1.81
17,D6Q,2.13
18,D6T,2.15
19,D6A,1.91
20,D6S,2.57
21,D6M,1.97
22,D6W,2.55
23,I2C,3.4
24,I2Q,3.76

row,Variant,protein stability index
1,I2F,2.42
2,I2W,2.36
3,I2S,3.88
4,I2P,3.66
5,I2D,4.21
6,I2H,4.22
7,I2V,3.67
8,I2Y,2.97
9,I2K,3.89
10,I2G,3.41
11,I2L,2.25
12,I2T,3.64
13,I2N,3.79
14,I2E,4.42
15,I2R,3.24
16,I2A,3.92
17,I2M,3.26
18,E7H,2.17
19,E7G,2.01
20,E7D,2.73
21,E7S,2.73
22,E7A,2.23
23,E7V,2.32
24,E7I,2.2

row,Variant,protein stability index
1,E7Q,2.35
2,E7F,1.68
3,E7L,1.92
4,E7N,2.36
5,E7P,2
6,E7W,1.98
7,E7C,1.73
8,E7Y,1.48
9,E7M,1.1
10,E7K,1.86
11,E7R,1.98
12,E7T,2.45
13,G9N,3.41
14,G9L,2.07
15,G9H,2.77
16,G9I,1.94
17,G9M,1.93
18,G9Q,2.75
19,G9F,1.61
20,G9P,3.2
21,G9E,3.13
22,G9K,2.56
23,G9D,3.16
24,G9C,2.19

row,Variant,protein stability index
1,G9A,2.76
2,L4V,3.26
3,L4I,2.86
4,L4D,4.18
5,L4P,3.73
6,L4N,3.12
7,L4T,3.79
8,L4C,2.76
9,L4F,2.66
10,L4A,3.72
11,L4S,3.94
12,L4G,3.89
13,L4W,2.85
14,L4Q,3.98
15,L4K,3.92
16,L4R,3.34
17,L4Y,3.52
18,L4M,3.11
19,L4E,4.29
20,L4H,3.81
